Values of other authors in patent publication US7144982B2, “Polypeptides with therapeutic activity and methods of use” (University of Minnesota, priority 2000, dated 2006).

Conditions: literature value; read-out: LPS binding activity (IC50); cited from earlier work

B1: B/PI: 55 kD protein B/PI, bactericidal/permeability increasing protein (protein, UniProt P17213 32-487, looked up)
Bactericidal …: VNPGVVVRISQKGLDYASQQGTAALQKELKRIKIPDYSDSFKIKHLGKGHYSFYSMDIREFQLPSSQISMVPNVGLKFSISNANIKISGKWKAQKRFLKMSGNFDLSIEGMSISADLKLGSNPTSGKPTITCSSCSSHINSVHVHISKSKVGWLIQLFHKKIESALRNKMNSQVCEKVTNSVSSELQPYFQTLPVMTKIDSVAGINYGLVAPPATTAETLDVQMKGEFYSENHHNPPPFAPPVMEFPAAHDRMVYLGLSDYFFNTAGLVYQEAGVLKMTLRDDMIPKESKFRLTTKFFGTFLPEVAKKFPNMKIQIHVSASTPPHLSVQPTGLTFYPAVDVQAFAVLPNSSLASLFLIGMHTTGSMEVSAESNRLVGELKLDRLLLELKHSNIGPFPVELLQDIMNYIVPILVLPRVNEKLQKGFPLPTPARVQLYNVVLQPHQNFLLFGADVVYK
- IC50: 20 nM
